The target in this assay is FA peptide (N-terminal phenylalanine, penultimate alanine; rest of sequence not given). The assay is described as follows: fluorescence polarization.

B1: PS609 (Bis-atClpS2-V1, Linker 1) (designed binder)
chain: MSDSPVDLKPKPKVKPKLERPKLYKVMLLNDDYTPMSFVTVVLKAVFRMSEDTGRRVMMTAHRFGSAVVVVCERDIAETKAKEATDLGKEAGFPLMFTTEPEEGGGSGGGSGGGSGMSDSPVDLKPKPKVKPKLERPKLYKVMLLNDDYTPMSFVTVVLKAVFRMSEDTGRRVMMTAHRFGSAVVVVCERDIAETKAKEATDLGKEAGFPLMFTTEPEEGHHHHHHHHHHGGGSGGGSGGGSGLNDFFEAQKIEWHEGGGSGGGSGGGSGLNDFFEAQKIEWHE
The molecule B1 came in with a Kd of 221 nM.

B2: PS611 (Bis-atClpS2-V1, Linker 3) (designed binder)
chain: MSDSPVDLKPKPKVKPKLERPKLYKVMLLNDDYTPMSFVTVVLKAVFRMSEDTGRRVMMTAHRFGSAVVVVCERDIAETKAKEATDLGKEAGFPLMFTTEPEEGSAGSAAGSGEFGSAGSAAGSGEFGSAGSAAGSGEFMSDSPVDLKPKPKVKPKLERPKLYKVMLLNDDYTPMSFVTVVLKAVFRMSEDTGRRVMMTAHRFGSAVVVVCERDIAETKAKEATDLGKEAGFPLMFTTEPEEGHHHHHHHHHHGGGSGGGSGGGSGLNDFFEAQKIEWHEGGGSGGGSGGGSGLNDFFEAQKIEWHE
On to B2, for which the Kd worked out at 137 nM.
